Laboratory results: patent publication US20240279318A1 (NANJING LEGEND BIOTECH, published 2024)

Assays:
[1] = molecular target: T1, AFP158/HLA-A*02:01 complex (human); test: SPR, fold vs AS170036 VL1VH1;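 further: crude scFv muteins immobilised on a sensor chip, peptide–MHC complex passed over at several concentrations, binding then buffer-driven dissociation, KD estimated from on- and off-rates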
T1 construct: flowed as analyte in SPR
Experimental: (§1) The experiment was carried out as follows. The crude scFv protein were captured onto the sensorchip. Different concentrations (320, 160, 40 nM) of AFP158/HLA-A*02:01 complex flowed over the sensorchip surface, and were allowed to bind the antibody fragment for 100 s followed by injection of the running buffer to allow dissociation of the complex. On-rate (kd) and off-rate (kd) were calculated based on association and dissociation curve, and were used to estimate the equilibrium dissociation constant (KD).
(§2) The crude scFv muteins were then subjected to SPR affinity measurement by the method mentioned above.

[2] = molecular target: T1, AFP158/HLA-A*02:01 complex; test: SPR, crude scFv captured, pMHC analyte;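 further: pMHC analyte injected at three concentrations, association phase of one hundred seconds, then running buffer for dissociation, rates fitted from both curves, KD derived from the rates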
Experimental: as §1, §2

Row | Binder | Affinity increase [1] | Kd [2] | koff [2] | kon [2]
1 | AS170036 VL1VH1-56N108S (scFv, also called 21-AS170036 VL1VH1-56N108S) scFv: QSALTQPRSVSGSPGQSVTISCAGTSSDVGSENYVSWYQQHPGKAPKLMIYQVNKRASGVPDRFSGSKSGNTASLTISGLQAEDEADYYCASYRSSDHNIVFGGGTKLTVLGGGGSGGGGSGGGGSEVQLVESGGGLVQPGGSLRLSCAASGFTFSSYAMSWVRQAPGKGLEWVSTINSGTNSPYYADSVKGRFTISRDNSKNTLYLQMNSLRAEDTAVYYCAKNFFDGSWFLSPPAMDYWGQGTLVTVSSHHHHHH | 7 fold | 32 nM | 0.0067 s⁻¹ | 210000 M⁻¹ s⁻¹
2 | AS170036 VL1VH1-57K98F (scFv, also called 10-AS170036 VL1VH1-57K98F) scFv: QSALTQPRSVSGSPGQSVTISCAGTSSDVGSENYVSWYQQHPGKAPKLMIYQVNKRASGVPDRFSGSKSGNTASLTISGLQAEDEADYYCASYRSSDFNIVFGGGTKLTVLGGGGSGGGGSGGGGSEVQLVESGGGLVQPGGSLRLSCAASGFTFSSYAMSWVRQAPGKGLEWVSTINSGTGKPYYADSVKGRFTISRDNSKNTLYLQMNSLRAEDTAVYYCAKNFFDGSWFLGPPAMDYWGQGTLVTVSSHHHHHH | 11.8 fold | 19 nM | 0.004 s⁻¹ | 210000 M⁻¹ s⁻¹
3 | AS170036 VL1VH1-56Y98F (scFv, also called 01-AS170036 VL1VH1-56Y98F) scFv: QSALTQPRSVSGSPGQSVTISCAGTSSDVGSENYVSWYQQHPGKAPKLMIYQVNKRASGVPDRFSGSKSGNTASLTISGLQAEDEADYYCASYRSSDFNIVFGGGTKLTVLGGGGSGGGGSGGGGSEVQLVESGGGLVQPGGSLRLSCAASGFTFSSYAMSWVRQAPGKGLEWVSTINSGTYSPYYADSVKGRFTISRDNSKNTLYLQMNSLRAEDTAVYYCAKNFFDGSWFLGPPAMDYWGQGTLVTVSSHHHHHH | 21 fold | 11 nM | 0.0023 s⁻¹ | 220000 M⁻¹ s⁻¹
4 | AS170036 VL1VH1-56Y108S (scFv, also called 18-AS170036 VL1VH1-56Y108S) scFv: QSALTQPRSVSGSPGQSVTISCAGTSSDVGSENYVSWYQQHPGKAPKLMIYQVNKRASGVPDRFSGSKSGNTASLTISGLQAEDEADYYCASYRSSDHNIVFGGGTKLTVLGGGGSGGGGSGGGGSEVQLVESGGGLVQPGGSLRLSCAASGFTFSSYAMSWVRQAPGKGLEWVSTINSGTYSPYYADSVKGRFTISRDNSKNTLYLQMNSLRAEDTAVYYCAKNFFDGSWFLSPPAMDYWGQGTLVTVSSHHHHHH | 19.2 fold | 12 nM | 0.0017 s⁻¹ | 140000 M⁻¹ s⁻¹
5 | AS170036 VL1VH1-57K98I (scFv, also called 11-AS170036 VL1VH1-57K98I) scFv: QSALTQPRSVSGSPGQSVTISCAGTSSDVGSENYVSWYQQHPGKAPKLMIYQVNKRASGVPDRFSGSKSGNTASLTISGLQAEDEADYYCASYRSSDINIVFGGGTKLTVLGGGGSGGGGSGGGGSEVQLVESGGGLVQPGGSLRLSCAASGFTFSSYAMSWVRQAPGKGLEWVSTINSGTGKPYYADSVKGRFTISRDNSKNTLYLQMNSLRAEDTAVYYCAKNFFDGSWFLGPPAMDYWGQGTLVTVSSHHHHHH | 9.1 fold | 25 nM | 0.004 s⁻¹ | 160000 M⁻¹ s⁻¹
6 | AS170036 VL1VH1-57H98I (scFv, also called 08-AS170036 VL1VH1-57H98I) scFv: QSALTQPRSVSGSPGQSVTISCAGTSSDVGSENYVSWYQQHPGKAPKLMIYQVNKRASGVPDRFSGSKSGNTASLTISGLQAEDEADYYCASYRSSDINIVFGGGTKLTVLGGGGSGGGGSGGGGSEVQLVESGGGLVQPGGSLRLSCAASGFTFSSYAMSWVRQAPGKGLEWVSTINSGTGHPYYADSVKGRFTISRDNSKNTLYLQMNSLRAEDTAVYYCAKNFFDGSWFLGPPAMDYWGQGTLVTVSSHHHHHH | 12.6 fold | 18 nM | 0.0036 s⁻¹ | 200000 M⁻¹ s⁻¹
7 | AS170036 VL1VH1-57H98Q (scFv, also called 09-AS170036 VL1VH1-57H98Q) scFv: QSALTQPRSVSGSPGQSVTISCAGTSSDVGSENYVSWYQQHPGKAPKLMIYQVNKRASGVPDRFSGSKSGNTASLTISGLQAEDEADYYCASYRSSDQNIVFGGGTKLTVLGGGGSGGGGSGGGGSEVQLVESGGGLVQPGGSLRLSCAASGFTFSSYAMSWVRQAPGKGLEWVSTINSGTGHPYYADSVKGRFTISRDNSKNTLYLQMNSLRAEDTAVYYCAKNFFDGSWFLGPPAMDYWGQGTLVTVSSHHHHHH | 24.8 fold | 9.1 nM | 0.0017 s⁻¹ | 190000 M⁻¹ s⁻¹
8 | AS170036 VL1VH1-57K98Q (scFv, also called 12-AS170036 VL1VH1-57K98Q) scFv: QSALTQPRSVSGSPGQSVTISCAGTSSDVGSENYVSWYQQHPGKAPKLMIYQVNKRASGVPDRFSGSKSGNTASLTISGLQAEDEADYYCASYRSSDQNIVFGGGTKLTVLGGGGSGGGGSGGGGSEVQLVESGGGLVQPGGSLRLSCAASGFTFSSYAMSWVRQAPGKGLEWVSTINSGTGKPYYADSVKGRFTISRDNSKNTLYLQMNSLRAEDTAVYYCAKNFFDGSWFLGPPAMDYWGQGTLVTVSSHHHHHH | 13.9 fold | 16 nM | 0.0025 s⁻¹ | 160000 M⁻¹ s⁻¹
9 | AS170036 VL1VH1-57H108D (scFv, also called 23-AS170036 VL1VH1-57H108D) scFv: QSALTQPRSVSGSPGQSVTISCAGTSSDVGSENYVSWYQQHPGKAPKLMIYQVNKRASGVPDRFSGSKSGNTASLTISGLQAEDEADYYCASYRSSDHNIVFGGGTKLTVLGGGGSGGGGSGGGGSEVQLVESGGGLVQPGGSLRLSCAASGFTFSSYAMSWVRQAPGKGLEWVSTINSGTGHPYYADSVKGRFTISRDNSKNTLYLQMNSLRAEDTAVYYCAKNFFDGSWFLDPPAMDYWGQGTLVTVSSHHHHHH | 23.5 fold | 9.6 nM | 0.002 s⁻¹ | 210000 M⁻¹ s⁻¹
10 | AS170036 VL1VH1-57H108S (scFv, also called 24-AS170036 VL1VH1-57H108S) scFv: QSALTQPRSVSGSPGQSVTISCAGTSSDVGSENYVSWYQQHPGKAPKLMIYQVNKRASGVPDRFSGSKSGNTASLTISGLQAEDEADYYCASYRSSDHNIVFGGGTKLTVLGGGGSGGGGSGGGGSEVQLVESGGGLVQPGGSLRLSCAASGFTFSSYAMSWVRQAPGKGLEWVSTINSGTGHPYYADSVKGRFTISRDNSKNTLYLQMNSLRAEDTAVYYCAKNFFDGSWFLSPPAMDYWGQGTLVTVSSHHHHHH | 14.2 fold | 16 nM | 0.0022 s⁻¹ | 140000 M⁻¹ s⁻¹
11 | AS170036 VL1VH1-57K108A (scFv, also called 25-AS170036 VL1VH1-57K108A) scFv: QSALTQPRSVSGSPGQSVTISCAGTSSDVGSENYVSWYQQHPGKAPKLMIYQVNKRASGVPDRFSGSKSGNTASLTISGLQAEDEADYYCASYRSSDHNIVFGGGTKLTVLGGGGSGGGGSGGGGSEVQLVESGGGLVQPGGSLRLSCAASGFTFSSYAMSWVRQAPGKGLEWVSTINSGTGKPYYADSVKGRFTISRDNSKNTLYLQMNSLRAEDTAVYYCAKNFFDGSWFLAPPAMDYWGQGTLVTVSSHHHHHH | 22.5 fold | 10 nM | 0.0018 s⁻¹ | 180000 M⁻¹ s⁻¹

These reach a lower Kd [2]. Values come first.

Row | Affinity increase [1] | Kd [2] | koff [2] | kon [2] | Binder
12 | 32.5 fold | 6.9 nM | 0.0014 s⁻¹ | 210000 M⁻¹ s⁻¹ | AS170036 VL1VH1-57H108A (scFv, also called 22-AS170036 VL1VH1-57H108A) scFv: QSALTQPRSVSGSPGQSVTISCAGTSSDVGSENYVSWYQQHPGKAPKLMIYQVNKRASGVPDRFSGSKSGNTASLTISGLQAEDEADYYCASYRSSDHNIVFGGGTKLTVLGGGGSGGGGSGGGGSEVQLVESGGGLVQPGGSLRLSCAASGFTFSSYAMSWVRQAPGKGLEWVSTINSGTGHPYYADSVKGRFTISRDNSKNTLYLQMNSLRAEDTAVYYCAKNFFDGSWFLAPPAMDYWGQGTLVTVSSHHHHHH
13 | 48.1 fold | 4.7 nM | 0.00093 s⁻¹ | 200000 M⁻¹ s⁻¹ | AS170036 VL1VH1-56Y108A (scFv, also called 16-AS170036 VL1VH1-56Y108A) scFv: QSALTQPRSVSGSPGQSVTISCAGTSSDVGSENYVSWYQQHPGKAPKLMIYQVNKRASGVPDRFSGSKSGNTASLTISGLQAEDEADYYCASYRSSDHNIVFGGGTKLTVLGGGGSGGGGSGGGGSEVQLVESGGGLVQPGGSLRLSCAASGFTFSSYAMSWVRQAPGKGLEWVSTINSGTYSPYYADSVKGRFTISRDNSKNTLYLQMNSLRAEDTAVYYCAKNFFDGSWFLAPPAMDYWGQGTLVTVSSHHHHHH
14 | 33.5 fold | 6.7 nM | 0.0014 s⁻¹ | 210000 M⁻¹ s⁻¹ | AS170036 VL1VH1-56Y98I (scFv, also called 02-AS170036 VL1VH1-56Y98I) scFv: QSALTQPRSVSGSPGQSVTISCAGTSSDVGSENYVSWYQQHPGKAPKLMIYQVNKRASGVPDRFSGSKSGNTASLTISGLQAEDEADYYCASYRSSDINIVFGGGTKLTVLGGGGSGGGGSGGGGSEVQLVESGGGLVQPGGSLRLSCAASGFTFSSYAMSWVRQAPGKGLEWVSTINSGTYSPYYADSVKGRFTISRDNSKNTLYLQMNSLRAEDTAVYYCAKNFFDGSWFLGPPAMDYWGQGTLVTVSSHHHHHH
15 | 37.3 fold | 6 nM | 0.0012 s⁻¹ | 200000 M⁻¹ s⁻¹ | AS170036 VL1VH1-56Y108D (scFv, also called 17-AS170036 VL1VH1-56Y108D) scFv: QSALTQPRSVSGSPGQSVTISCAGTSSDVGSENYVSWYQQHPGKAPKLMIYQVNKRASGVPDRFSGSKSGNTASLTISGLQAEDEADYYCASYRSSDHNIVFGGGTKLTVLGGGGSGGGGSGGGGSEVQLVESGGGLVQPGGSLRLSCAASGFTFSSYAMSWVRQAPGKGLEWVSTINSGTYSPYYADSVKGRFTISRDNSKNTLYLQMNSLRAEDTAVYYCAKNFFDGSWFLDPPAMDYWGQGTLVTVSSHHHHHH
16 | 30.2 fold | 7.4 nM | 0.0018 s⁻¹ | 240000 M⁻¹ s⁻¹ | AS170036 VL1VH1-57H98F (scFv, also called 07-AS170036 VL1VH1-57H98F) scFv: QSALTQPRSVSGSPGQSVTISCAGTSSDVGSENYVSWYQQHPGKAPKLMIYQVNKRASGVPDRFSGSKSGNTASLTISGLQAEDEADYYCASYRSSDFNIVFGGGTKLTVLGGGGSGGGGSGGGGSEVQLVESGGGLVQPGGSLRLSCAASGFTFSSYAMSWVRQAPGKGLEWVSTINSGTGHPYYADSVKGRFTISRDNSKNTLYLQMNSLRAEDTAVYYCAKNFFDGSWFLGPPAMDYWGQGTLVTVSSHHHHHH
17 | 25.8 fold | 8.7 nM | 0.0016 s⁻¹ | 190000 M⁻¹ s⁻¹ | AS170036 VL1VH1-56Y98Q (scFv, also called 03-AS170036 VL1VH1-56Y98Q) scFv: QSALTQPRSVSGSPGQSVTISCAGTSSDVGSENYVSWYQQHPGKAPKLMIYQVNKRASGVPDRFSGSKSGNTASLTISGLQAEDEADYYCASYRSSDQNIVFGGGTKLTVLGGGGSGGGGSGGGGSEVQLVESGGGLVQPGGSLRLSCAASGFTFSSYAMSWVRQAPGKGLEWVSTINSGTYSPYYADSVKGRFTISRDNSKNTLYLQMNSLRAEDTAVYYCAKNFFDGSWFLGPPAMDYWGQGTLVTVSSHHHHHH
